Experimental data: patent US20220106391A1 (ZOETIS SERVICES, published 2022)
Residue numbers refer to the chain shown, from its start.

Assays:
canine beta-NGF (cNGF) [1] = biological target: T1, canine beta-NGF (cNGF) (canine, UniProt Q29074 110-229 (pig entry)); assay: SPR (Biacore), KD column of Table 3
T1 construct: also called canine NGF; can NGF
T1 chain: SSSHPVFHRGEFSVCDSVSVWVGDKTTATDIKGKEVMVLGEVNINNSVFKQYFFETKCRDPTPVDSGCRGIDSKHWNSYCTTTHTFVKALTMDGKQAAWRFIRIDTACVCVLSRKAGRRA

rat NGF = rat NGF (rat, UniProt P25427 122-241); assay: cell-based or functional assay
canine beta-NGF (cNGF) [2] = biological target: T1, canine beta-NGF (cNGF); assay: SPR (Biacore), cNGF binding; KD column of Table 7
NGF (species not stated) [3] = assay: cell-based or functional assay
canine beta-NGF (cNGF) [4] = biological target: T1, canine beta-NGF (cNGF); assay: SPR (Biacore)
canine beta-NGF (cNGF) [5] = biological target: T1, canine beta-NGF (cNGF); assay: cell-based or functional assay
feline NGF = biological target: T2, feline NGF (feline); assay: SPR, Biacore 3000, feline NGF
T2 chain: T1 chain
Experimental: Affinities of selected felinized anti-NGF antibody to feline NGF were measured using SPR (Surface Plasmon Resonance), Biacore 3000. Kinetics of association and dissociation of a felinized mAb with/from feline NGF were measured at different concentrations.

NGF (species not stated) [6] = assay: cell-based or functional assay; remark: listed apart in the source

Chain of rat NGF (P25427 122-241 limits assumed): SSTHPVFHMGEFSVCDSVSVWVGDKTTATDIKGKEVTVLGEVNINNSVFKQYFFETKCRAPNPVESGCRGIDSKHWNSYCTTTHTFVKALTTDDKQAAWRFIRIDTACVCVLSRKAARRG

B1: H3AQC23L1A02D9L2 (antibody, V domains shown)
VH: EVQLVESGGDLARPGGSLKLSCVVSGFTLTQYGINWVRQAPGKGLQWVTVIWATGATDYNSALKSRFTVSRDNAMNTVYLQMNSLRVEDTAVYYCARDGWWYATSWYFDVWGQGTLVTVSS
VL: DIVMTQTPLSLSVSPGEPASISCRASQDISNYLNWFRQKPDGTVKLLIYKTNSLQTGVPSRFSGSGSGTDFTLRISRVEADDAGVYYCQQGSTLPRTFGQGT
notes: Caninized IgG
Canine beta-NGF (cNGF) [1]
  binding result: no binding

B2: H3AQC2301B12L1AL1L3 (ZTS-00103182) (antibody, V domains shown)
VH: B1 VH
VL: DIVMTQTPLSLSVSPGEPASISCKASQDINHYLNWFRQKPDGTVKLLIYYTSRLHSGVPSRFSGSGSGTDFTLRISRVEADDAGVYYCQQGDHFPRTFGQGT
notes: Caninized IgG; 49 as printed runs on into CH1; the VL entry stops at FGQGT; also called ZTS-182; wt 182
Rat NGF
  IC50 nM (inhibition of neurite outgrowth, PC12 cells, rat NGF 10 ng/ml): 0.21 nM
  IC50 µg/ml (inhibition of neurite outgrowth, PC12 cells, rat NGF 10 ng/ml): 0.031 µg/mL
Canine beta-NGF (cNGF) [2]
  Kd: 2.7 pM
NGF (species not stated) [3]
  IC50 nM (TF-1 proliferation inhibition, NGF 2.0 ng/ml): 0.046 nM
  IC50 µg/ml (TF-1 proliferation inhibition, NGF 2.0 ng/ml): 0.00693 µg/mL
Canine beta-NGF (cNGF) [4]
  Kd: 0.061 nM
Canine beta-NGF (cNGF) [5]
  IC50 [nM] (TrkA cell based assay): 1.26 nM

B3: H733 L3-K36 (antibody, V domains shown)
VH: DVQLVESGGDLVKPGGSLRLTCVASGFTLTQYGINWVRQAPGKGLQWVAVIWATGATDYNSALKSRFTMSRDNARNTLYLQMNSLKTEDTATYYCARDGWWYATSWYFDVWGQGTLVTVSS
VL: DIVMTQTPLSLPVTPGEPASISCKASQDINHYLNWYLQKPGQSPRLLIYYTSRLHSGVPSRFSGSGSGTDFTLRISSVEADDVGVYYCQQGDHFPRTFGQGT
notes: also called ZTS-082-361
Feline NGF
  Kd: 0.334 pM
NGF (species not stated) [6]
  IC50 (nM) (pERK-1/2, cell line expressing human TrkA): 1.13 nM

B4: H1-23K643 (antibody, V domains shown)
VH: B3 VH with K13Q, M69I, R75K, T115A
VL: EIQMTQSPSSLSASPGDRVTITCKASQDINHYLNWYQQKPGKVPKLLIYYTSRLHSGVPSRFSGSGSGTDFTLTISSLEPEDAATYYCQQGDHFPRTFGGGT
notes: also called ZTS-082-2D
Feline NGF
  Kd: 177 pM
NGF (species not stated) [6]
  IC50 (nM) (pERK-1/2, cell line expressing human TrkA): 1.48 nM

B5: H733KPL (antibody, V domains shown)
VH: B3 VH
VL: B2 VL with S14T, F36Y, R37L, A83V, Q100P
notes: also called ZTS-082-2E
Feline NGF
  Kd: 0.458 pM
NGF (species not stated) [6]
  IC50 (nM) (pERK-1/2, cell line expressing human TrkA): 1.34 nM
